Reference: PMC7673117

Tests used:
[1] = molecular target: HLA-E loaded with Peptide 12 (…) on 721.174 cells (human (endogenous in 721.174 cells) | Epstein-Barr virus (B95.8 laboratory strain)) (UniProt P13747)
[2] = molecular target: HLA-E loaded with Peptide 9 on 721.174 cells (human (endogenous in 721.174 cells) | Epstein-Barr virus (B95.8 laboratory strain)) (UniProt P13747)
[3] = molecular target: HLA-E loaded with Peptide 19 on 721.174 cells (human (endogenous in 721.174 cells) | Epstein-Barr virus (B95.8 laboratory strain)) (UniProt P13747)

Measured: cytotoxicity of sorted NKG2A+NKG2C- NK cells against peptide-pulsed 721.174 cells, E:T 3:1, 5 h

NKG2A/CD94 receptor on primary human NK cells (from UniProt P26715;Q13241)
> 80%: [1] | [2] | [3]
